T1: elongation factor EF-G of M. thermautotrophicus, found in the cross-linking experiment with 70S ribosomes (M. thermautotrophicus (endogenous in M. …, UniProt O27131 1-730))
T1 construct: EF-G of M. thermautotrophicus, Mr 81 kDa as printed; source: endogenous, in the 70S ribosome preparation from M. thermautotrophicus cells
T1 sequence (looked up): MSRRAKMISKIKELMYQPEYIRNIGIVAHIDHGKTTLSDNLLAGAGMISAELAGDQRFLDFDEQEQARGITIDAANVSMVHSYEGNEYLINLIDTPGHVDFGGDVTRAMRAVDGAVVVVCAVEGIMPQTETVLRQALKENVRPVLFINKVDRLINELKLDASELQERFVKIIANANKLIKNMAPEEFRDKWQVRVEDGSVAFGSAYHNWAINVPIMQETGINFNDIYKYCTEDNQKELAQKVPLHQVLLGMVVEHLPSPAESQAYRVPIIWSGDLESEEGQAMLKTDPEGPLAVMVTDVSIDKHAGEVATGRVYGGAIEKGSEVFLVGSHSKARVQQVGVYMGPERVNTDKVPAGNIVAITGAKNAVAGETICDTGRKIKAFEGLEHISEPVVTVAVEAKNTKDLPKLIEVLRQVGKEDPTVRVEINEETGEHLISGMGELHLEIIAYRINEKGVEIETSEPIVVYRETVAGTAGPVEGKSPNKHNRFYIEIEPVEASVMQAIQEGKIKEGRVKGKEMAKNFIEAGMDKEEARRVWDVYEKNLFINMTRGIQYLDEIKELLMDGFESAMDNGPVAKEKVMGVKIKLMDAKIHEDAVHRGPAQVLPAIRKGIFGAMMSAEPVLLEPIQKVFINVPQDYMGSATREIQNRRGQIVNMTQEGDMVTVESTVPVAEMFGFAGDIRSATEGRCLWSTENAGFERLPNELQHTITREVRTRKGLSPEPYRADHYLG

T2: Methanothermobacter thermautotrophicus methanogenic-type seryl-tRNA synthetase (M. thermautotrophicus, UniProt O27194 1-513)
T2 construct: methanogenic-type seryl-tRNA synthetase (mSerRS) of M. thermautotrophicus; Labelled with DY-495 in the MST experiment with L12; coupled by amines to a CM5 chip in SPR; also called mSerRS; SerRS
T2 sequence (looked up): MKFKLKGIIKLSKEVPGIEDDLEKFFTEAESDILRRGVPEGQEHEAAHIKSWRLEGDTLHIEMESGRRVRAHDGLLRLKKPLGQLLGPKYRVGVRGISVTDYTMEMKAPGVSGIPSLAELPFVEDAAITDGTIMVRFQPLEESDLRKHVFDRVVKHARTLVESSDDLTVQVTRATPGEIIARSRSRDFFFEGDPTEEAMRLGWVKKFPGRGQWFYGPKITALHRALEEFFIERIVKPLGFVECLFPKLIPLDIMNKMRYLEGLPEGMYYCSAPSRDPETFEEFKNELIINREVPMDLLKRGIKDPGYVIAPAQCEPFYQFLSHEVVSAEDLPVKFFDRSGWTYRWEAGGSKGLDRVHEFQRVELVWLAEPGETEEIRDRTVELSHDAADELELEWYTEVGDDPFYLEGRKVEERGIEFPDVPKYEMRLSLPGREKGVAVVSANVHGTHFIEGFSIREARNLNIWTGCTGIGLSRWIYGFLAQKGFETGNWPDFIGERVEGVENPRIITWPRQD

B1: Methanothermobacter thermautotrophicus arginyl-tRNA synthetase (enzyme, M. thermautotrophicus, UniProt O27496 1-560, looked up)
chain: MFRYIEKEARDSITAALEKLGIKVPPEIKLEEPPNPQLGDLASTVSFELAGKLRRAPIEITADIMSVIETPEIFETIESKGPYINFFVDYGRFSSRLLESIQDDYGSHPPRDERVILEHTSANPNGPLHIGHIRNAIIGDSLARILRMAGYDVETQYYVNDMGRQIAMIVWGLLNLDGDLEDYPGDKMDHRVGKLYFEVNQRLKENPGIRDEVDELIRKYEAGENEELFRKVVEYCLSGMEETMKRLHVHHDRFVWEGQFVRDGTVDRVIESLRKTGYTGENDVLYLDLEEFGLEKELVLTRSDGTSLYSTRDIAYHLQKSEEGDVIIDVLGSDHKLAAEQVGIAVELLGGKRPEVIFYEFITLPEGSMSTRRGVFISVDELMDEAHSRALHEVKKRRDLPDDVADDIAESIGNGAIRYYIARLSPEKHIVFRWDDALSFERGCASIQYAHARACKLLEKASFTGEEDIEDGWKPEGDERELVRLLARFPVVVEESALARRVHPVAQYAQDLANTFNSFYRSTPVIGSDFEGARLRLVDSVRKTLRNALNLLGIHAPETM
notes: arginyl-tRNA synthetase of M. thermautotrophicus; gene inserted into pPROex-Htb as a BamHI and XhoI cassette; His-tagged ArgRS is named only for the Ni-NTA SPR surface; also called ArgRS; source: E. coli BL21 Rosetta, purified (Ni-NTA agarose)
B2: ribosomal protein L10 (P0 homologue) of M. thermautotrophicus, as it stands in the ribosome (natural protein, UniProt O27717 1-336, looked up)
chain: MAHVAEWKKKEVQELHDLIKGYEVVGIANLADIPARQLQKMRQTLRDSALIRMSKKTLISLALEKAGRELENVDSLSDYMEGQPALIFTDMNPFKLFKILEDSKTPAPAKPGAIAPDDIVVPKGDTGFAPGPILGELQQIGIPAKIEKGKIVVSNDHVVVKAGEEIPPKVAGILTRLDIQPLEVGIDLRAAYENQTVYTADVLTIDEEKTLSDIQKAFSQAFNLSVNAVIYTRETMPAIIQKAASKSFNLAYNASILTSETTDLLLAKAYAQMLALAAAAAEINDEAVDDELKEKLSSRAAAPAPEEKEEEVEEEAEEEEEEEEEDAAAGLGALFG
notes: ribosomal protein L10 (P0 homologue) of M. thermautotrophicus, Mr 37 kDa as printed; Cross-linked while part of the ribosome; source: endogenous, in 70S ribosomes purified from M. thermautotrophicus cells
B3: recombinant ribosomal protein L10 of M. thermautotrophicus (natural protein, UniProt O27717 1-336, looked up)
chain: B2 chain
notes: ribosomal protein L10 (P0 homologue) of M. thermautotrophicus; gene inserted into pGEX-6P-2 via BamHI and SalI; The methods say both that the GST tag was removed and that GST-tagged proteins are appropriate for SPR; also called P0; source: E. coli BL21 Rosetta, purified (GST-Sepharose)
B4: ribosomal protein L3p of M. thermautotrophicus, as it stands in the ribosome (natural protein, UniProt O26110 1-337, looked up)
chain: MARHHQPRKGSVAFSPRKRAARETPRVKSWPQVDEPGLLALAGYKAGMTHVMMVDNQKNSPTEGMEVSTPVTILEVPPLTVMAVRTYEKTSRGLKTLGEVLATETKDDLRRKLTPPADDYDQEAAIEKIRSNMEYVADVRVIVHTNPRLASVPKKKPEVFECGLGGKTPEEKFEYALEILGKDVRASEIFSEGAFVDAIAVTKGKGFQGPVKRWGIRIQYGKAARSSKGRHIGSLGPWTPSRTMWTVPQAGQMGYHRRTEYNKQILKIGDASEADLVNPDGGFVRYGLVRNDYVMIKGSVPGPTKRLVVLRKAIRAAGKQEEAPQINYISTASKQGV
notes: ribosomal protein L3 of M. thermautotrophicus, Mr 37 kDa as printed; Cross-linked while part of the ribosome; source: endogenous, in 70S ribosomes purified from M. thermautotrophicus cells
B5: recombinant ribosomal protein L3 of M. thermautotrophicus (natural protein, UniProt O26110 1-337, looked up)
chain: B4 chain
notes: ribosomal protein L3 of M. thermautotrophicus; gene inserted into pGEX-6P-2 via BamHI and EcoRI; The methods say both that the GST tag was removed and that GST-tagged proteins are appropriate for SPR; source: E. coli BL21 Rosetta, purified (GST-Sepharose)
B6: recombinant ribosomal protein L6 of M. thermautotrophicus (natural protein)
chain: not shown
notes: ribosomal protein L6 of M. thermautotrophicus; whole-length gene amplified from genomic DNA, cloned into pPROex-Htb via BamHI and SalI; source: E. coli BL21 Rosetta, purified (Ni-NTA agarose)
B7: recombinant ribosomal protein L12 of M. thermautotrophicus (natural protein, UniProt P05394 1-101, looked up)
chain: MEYIYAAMLLHTTGKEINEENVKSVLEAAGAEVDDARVKALIAALEDVDIEEAMETTAVAAAPAAAAAPAAAEEAEEEAEEEEEEEEAEEEAAAGLGALFG
notes: ribosomal protein L12 (P1 homologue) of M. thermautotrophicus; whole-length gene amplified from genomic DNA, cloned into pPROex-Htb via NcoI and SalI; also called P1; source: E. coli BL21 Rosetta, purified (Ni-NTA agarose)

Tests used:
Conditions in all cases: both partners purified
[1] = target: T1, elongation factor EF-G of M. …; test: cross-linking; 70S ribosomes incubated with mSerRS or ArgRS; EDC; quenched; complexes pelleted; SDS-PAGE and mass spectrometry
[2] = target: B1; test: as above
[3] = target: B1; test: SPR; ArgRS with ribosomal proteins; Ni-NTA surface used to immobilise His-tagged ArgRS, L6 or L12; which was held for which pair is not told; 25°C, Biacore T100
[4] = target: T2, Methanothermobacter thermautotrophicus …; test: SPR; mSerRS amine-coupled to a CM5 chip (~800 RU), ribosomal proteins or controls as analytes; 25°C, Biacore T100, 10 µl/min; steady state affinity model
[5] = target: T2, Methanothermobacter thermautotrophicus …; test: MST; labelled mSerRS kept constant, unlabelled L12 titrated 0.528 nM-17.32 µM; Monolith NT.115

B1
binding result [1]: binds

B2
binding result [2]: binds

B3
binding result [3]: binds
Kd [4]: 39 nM

B4
binding result [2]: binds

B5
binding result [3]: binds
Kd [4]: 54 nM

B6
binding result [3]: binds
Kd [4]: 240 nM

B7
Kd [4]: 170 nM
Kd [5]: 460 nM

— article PMC4005694, “Archaeal aminoacyl-tRNA synthetases interact with the ribosome to recycle tRNAs” (Nucleic Acids Research, 2014)
